US20180273635A1 (Zymeworks, published 2018)

Assays:
[1] = molecular target: T1, HER2 expressed on the surface of cells (human, UniProt P04626 23-1255); test: cell-based or functional assay
[2] = molecular target: T1, HER2 expressed on the surface of cells; test: cell-based or functional assay; remark: listed apart in the source
[3] = molecular target: T1, HER2 expressed on the surface of cells; test: cell-based or functional assay; remark: listed apart in the source
[4] = molecular target: T1, HER2 expressed on the surface of cells; test: cell-based or functional assay; remark: listed apart in the source
[5] = molecular target: T1, HER2 expressed on the surface of cells; test: cell-based or functional assay; remark: listed apart in the source
[6] = molecular target: T1, HER2 expressed on the surface of cells; test: flow cytometry on BT474 cells, n=1
Procedure: (§1) Binding of the test antigen-binding constructs to the surface of HER2+ cells was determined by flow cytometry. Cells were washed with PBS and resuspended in DMEM at 1×10⁵ cells/100 μl. 100 μl cell suspension was added into each microcentrifuge tube, followed by 10 μl/tube of the antigen-binding constructs. The tubes were incubated for 2 hr at 4° C. on a rotator. The microcentrifuge tubes were centrifuged for 2 min 2000 RPM at room temperature and the cell pellets washed with 500 μl media. Each cell pellet was resuspended in 100 μl of fluorochrome-labelled secondary antibody diluted in media to 2 μg/sample. The samples were then incubated for lhr at 4° C. on a rotator. After incubation, the cells were centrifuged for 2 min at 2000 rpm and washed in media. The cells were resuspended in 500 μl media, filtered, transferred to a tube containing 5 μl propidium iodide (PI) and analyzed on a BD LSR II flow cytometer according to the manufacturer's instructions. The B50 of the tested antigen-binding constructs was assessed by FACS with data analysis and curve fitting performed in GraphPad Prism. The experiment was carried out once (n=1) in SKBr3 cells, and twice (n=2) in SKOV3, MCF7, and BT-474 cells.
(§2) The experiment was performed once (n=1) in each cell line.

[7] = molecular target: T1, HER2 expressed on the surface of cells; test: flow cytometry on SKBR3 cells, n=1
Procedure: as §1, §2

[8] = molecular target: T1, HER2 expressed on the surface of cells; test: flow cytometry on MCF7 cells (low HER2), n=1
Procedure: as §1, §2

[9] = molecular target: T1, HER2 expressed on the surface of cells; test: flow cytometry on BT474 cells, n=1; B50 = concentration at 50% of Bmax
Procedure: as §1, §2

[10] = molecular target: T1, HER2 expressed on the surface of cells; test: flow cytometry on SKBR3 cells, n=1; B50 = concentration at 50% of Bmax
Procedure: as §1, §2

[11] = molecular target: T1, HER2 expressed on the surface of cells; test: flow cytometry on MCF7 cells (low HER2), n=1; B50 = concentration at 50% of Bmax
Procedure: as §1, §2

Recombinant human HER2 [12] = molecular target: T2, Recombinant human HER2 (human, UniProt P04626 23-652); test: calculated from the SPR Ka ratio to WT, -RTln(Ka,mut/Ka,WT), 298 K
T2 construct: extracellular domain; Analyte of the SPR assays; also called HER2 ECD; ECD2 of HER2

Recombinant human HER2 [13] = molecular target: T2, Recombinant human HER2; test: SPR post-SEC (value taken over from Table 5); Ka ratio to WT v10013
Procedure: The affinity towards HER2 ECD of the samples was measured by SPR on a Biacore T200 as follows. Between 2000 and 4000 RU of anti-human Fc injected at concentration between 5 and 10 μg/ml was immobilized on a CM5 chip using standard amine coupling. Antigen-binding constructs were captured on the anti-human Fc (injected at concentration at 0.51 microg/mL in PBST, 1 min at 10 microl/min) at response levels ranging from 120-270 RU. […] HER2 dilutions were analyzed in duplicates. Sensograms were fit globally to a 1: 1 Langmuir binding model, using the software provided with the Biacore T200. All experiments were conducted at 25° C.
The affinity of antigen-binding constructs in OA format was determined by SPR following protein A purification. […] Antigen-binding constructs in FSA format were purified by protein A affinity and SEC prior to assessment of affinity by SPR.

Row | Binder | growth inhibition IC50 (potency), SKBR3 cells [1] | growth inhibition span ratio to WT, SKBR3 cells [1] | growth inhibition IC50 (potency), BT474 cells [2] | growth inhibition span ratio to WT, BT474 cells [2] | growth inhibition IC50 (potency), BT474 cells + EGF [3] | growth inhibition span ratio to WT, BT474 cells + EGF [3] | growth inhibition IC50 (potency), NCI-N87 cells, 5 days [4] | increase in efficacy with respect to the WT, NCI-N87 cells [4] | increase in potency with respect to the WT, NCI-N87 cells [4] | Bmax [6] | Bmax [7] | Bmax [8] | B50 [9] | B50 [10] | B50 [11] | growth inhibition span (percentage of cells killed), SKBR3 cells [1] | growth inhibition span (percentage of cells killed), BT474 cells [2] | growth inhibition span (percentage of cells killed), BT474 cells + EGF [3] | growth inhibition span (percentage of cells killed), NCI-N87 cells [4] | growth inhibition span (percentage of cells killed), MDA-MB-175 cells [5] | further results
1 | Variant 14019 (antibody, name in Kabat numbering, V domains shown, also called v14019) VH: EVQLVESGGGLVQPGGSLRLSCAASGFTFQDYTMDWVRQAPGKGLEWVGDVNPNSGGSIYNQRFKGRFTFSVDRSWNTLYLQMNSLRAEDTAVYYCARNLGPSFYFDYWGQGTLVTVSS VL: DIQMTQSPSSLSASVGDRVTITCKASQDVSIGVAWYQQKPGKAPKLLIYSASYRYTGVPSRFSGSGSGTDFTLTISSLQPEDFATYYCQQYYIYPYTFGQGTKVEIKR | 0.25 nM | 1.5 fold | 0.51 nM | 3 fold | 1.1 nM | 1.8 fold | 4.1 nM | 2.2 fold | 2.2 fold | 23000 MFI | 29000 MFI | 670 MFI | 2.9 nM | 14 nM | 1.4 nM | 25% | 32% | 33% | 37% | 85% | 
2 | Variant 14022 (antibody, name in Kabat numbering, V domains shown, also called v14022) VH: EVQLVESGGGLVQPGGSLRLSCAASGFTFQDYTMDWVRQAPGKGLEWVGDVNPNSGGSIYNQRFKGRFTFSVDRSKNTLYLQMNSLRAEDTAVYYCARNLGPWFYFDYWGQGTLVTVSS VL: DIQMTQSPSSLSASVGDRVTITCKASQDVSIGVAWYQQKPGKAPKLLIWSASYRYTGVPSRFSGSGSGTDFTLTISSLQPEDFATYYCQQYYIYPYTFGQGTKVEIKR | 0.41 nM | 1.6 fold | 0.54 nM | 2.6 fold | 2.8 nM | 1.9 fold | 5.2 nM | 3.7 fold | 1.8 fold | 23000 MFI | 31000 MFI | 630 MFI | 3 nM | 9.8 nM | 2 nM | 26% | 28% | 35% | 63% | 83% | 
3 | Variant 12610 (antibody, human IgG1, kappa, OA (one-armed) format; clones 3376, 1811, 4372; also called v12610) heavy: EVQLVESGGGLVQPGGSLRLSCAASGFTFADYTMDWVRQAPGKGLEWVADVNPNSGGSIYNQRFKGRFTLSVDRSKNTLYLQMNSLRAEDTAVYYCARNLGPSFYFDYWGQGTLVTVSSASTKGPSVFPLAPSSKSTSGGTAALGCLVKDYFPEPVTVSWNSGALTSGVHTFPAVLQSSGLYSLSSVVTVPSSSLGTQTYICNVNHKPSNTKVDKKVEPKSCDKTHTCPPCPAPELLGGPSVFLFPPKPKDTLMISRTPEVTCVVVDVSHEDPEVKFNWYVDGVEVHNAKTKPREEQYNSTYRVVSVLTVLHQDWLNGKEYKCKVSNKALPAPIEKTISKAKGQPREPQVYVYPPSRDELTKNQVSLTCLVKGFYPSDIAVEWESNGQPENNYKTTPPVLDSDGSFALVSKLTVDKSRWQQGNVFSCSVMHEALHNHYTQKSLSLSPG light: not shown not shown |  |  |  |  |  |  |  |  |  |  |  |  |  |  |  |  |  |  |  |  | ΔΔG (Recombinant human HER2 [12]): -0.9 kcal/mol; Ka, mut/Ka, WT (Recombinant human HER2 [13]): 4.5 fold

More lines, main results first:

Row | growth inhibition IC50 (potency), SKBR3 cells [1] | growth inhibition span ratio to WT, SKBR3 cells [1] | growth inhibition IC50 (potency), BT474 cells [2] | growth inhibition span ratio to WT, BT474 cells [2] | growth inhibition IC50 (potency), BT474 cells + EGF [3] | growth inhibition span ratio to WT, BT474 cells + EGF [3] | growth inhibition IC50 (potency), NCI-N87 cells, 5 days [4] | increase in efficacy with respect to the WT, NCI-N87 cells [4] | increase in potency with respect to the WT, NCI-N87 cells [4] | Bmax [6] | Bmax [7] | Bmax [8] | B50 [9] | B50 [10] | B50 [11] | Binder | growth inhibition span (percentage of cells killed), SKBR3 cells [1] | growth inhibition span (percentage of cells killed), BT474 cells [2] | growth inhibition span (percentage of cells killed), BT474 cells + EGF [3] | growth inhibition span (percentage of cells killed), NCI-N87 cells [4] | growth inhibition span (percentage of cells killed), MDA-MB-175 cells [5] | further results
4 | 0.17 nM | 1.6 fold | 0.55 nM | 2.6 fold | 1.7 nM | 2 fold | 3.5 nM | 3.2 fold | 2.6 fold | 22000 MFI | 33000 MFI | 640 MFI | 4.1 nM | 21 nM | 2.6 nM | Variant 14020 (antibody, name in Kabat numbering, V domains shown, also called v14020) VH: EVQLVESGGGLVQPGGSLRLSCAASGFTFQDYTMDWVRQAPGKGLEWVGDVNPNSGGSIYNQRFKGRFTFSVDRSKNTLYLQMNSLRAEDTAVYYCARNLGPWFYFDYWGQGTLVTVSS VL: DIQMTQSPSSLSASVGDRVTITCKASQDVSIGVAWYQQKPGKAPKLLIYSASYRYTGVPSRFSGSGSGTDFTLTISSLQPEDFATYYCQQYYIYPYTFGQGTKVEIKR | 26% | 27% | 37% | 55% | 80% | 
5 | 0.32 nM | 1.8 fold | 0.49 nM | 3.1 fold | 2 nM | 2.4 fold | 2 nM | 2.6 fold | 4.6 fold | 23000 MFI | 31000 MFI | 610 MFI | 2.4 nM | 10 nM | 1 nM | Variant 14021 (antibody, name in Kabat numbering, V domains shown, also called v14021) VH: EVQLVESGGGLVQPGGSLRLSCAASGFTFQDYTMDWVRQAPGKGLEWVGDVNPNSGGSIYNQRFKGRFTFSVDRSWNTLYLQMNSLRAEDTAVYYCARNLGPSFYFDYWGQGTLVTVSS VL: DIQMTQSPSSLSASVGDRVTITCKASQDVSIGVAWYQQKPGKAPKLLIWSASYRYTGVPSRFSGSGSGTDFTLTISSLQPEDFATYYCQQYYIYPYTFGQGTKVEIKR | 31% | 33% | 44% | 44% | 82% | 
6 | 0.28 nM | 1.7 fold | 0.66 nM | 2.8 fold | 1.7 nM | 1.8 fold | 2.1 nM | 1.9 fold | 4.3 fold | 22000 MFI | 32000 MFI | 680 MFI | 2.4 nM | 8.4 nM | 0.9 nM | Variant 14018 (antibody, name in Kabat numbering, V domains shown, also called v14018) VH: EVQLVESGGGLVQPGGSLRLSCAASGFTFTDYTMDWVRQAPGKGLEWVGDVNPNSGGSIYNQRFKGRFTFSVDRSWNTLYLQMNSLRAEDTAVYYCARNLGPSFYFDYWGQGTLVTVSS VL: DIQMTQSPSSLSASVGDRVTITCKASQDVSIGVAWYQQKPGKAPKLLIWSASYRYTGVPSRFSGSGSGTDFTLTISSLQPEDFATYYCQQYYIYPYTFGQGTKVEIKR | 29% | 30% | 33% | 32% | 85% | 
